Data on six molecules can be found in publication PMC3542137, “Mycobacterium tuberculosis RecG binds and unwinds model DNA substrates with a preference for Holliday junctions”.

Data set [1] has as its target T1, RecGMtb (Mycobacterium tuberculosis H37Rv, UniProt P9WMQ7 1-737).
T1 sequence: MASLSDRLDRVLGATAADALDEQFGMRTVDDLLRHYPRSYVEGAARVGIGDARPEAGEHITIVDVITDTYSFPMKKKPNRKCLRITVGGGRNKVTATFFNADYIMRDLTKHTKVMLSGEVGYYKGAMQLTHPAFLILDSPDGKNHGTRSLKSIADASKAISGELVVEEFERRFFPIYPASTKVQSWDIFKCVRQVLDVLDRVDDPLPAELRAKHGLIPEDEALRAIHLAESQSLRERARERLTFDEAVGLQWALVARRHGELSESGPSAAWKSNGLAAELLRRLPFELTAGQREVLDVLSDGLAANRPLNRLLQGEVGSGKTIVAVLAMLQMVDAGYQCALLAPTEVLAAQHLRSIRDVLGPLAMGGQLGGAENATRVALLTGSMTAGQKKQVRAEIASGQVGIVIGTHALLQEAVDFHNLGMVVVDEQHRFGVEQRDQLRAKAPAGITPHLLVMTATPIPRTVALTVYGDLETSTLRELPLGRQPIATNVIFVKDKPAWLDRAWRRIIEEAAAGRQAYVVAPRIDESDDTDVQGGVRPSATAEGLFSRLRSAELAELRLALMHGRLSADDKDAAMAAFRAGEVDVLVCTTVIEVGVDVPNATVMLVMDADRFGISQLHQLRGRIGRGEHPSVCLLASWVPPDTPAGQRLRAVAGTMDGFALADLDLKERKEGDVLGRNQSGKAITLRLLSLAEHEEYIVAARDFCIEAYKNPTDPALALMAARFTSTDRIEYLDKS
As to the kind of experiment: EMSA; 5 mM EDTA, poly(dI-dC). The following applies: protein: recombinant, tags: N-terminal His6 cleaved off with thrombin (pET28b), label: 32P 5' end. (In general: Mobility shift assays separate free from complexed probe on a gel.)

The target in data set [2] is T1, RecGMtb. As to the kind of experiment: EMSA; no poly(dI-dC); 1 uM RecG. The following applies: protein: recombinant; tags: N-terminal His6 cleaved off with thrombin (pET28b); label: 32P 5' end.
The target of data set [3] is T1, RecGMtb. In words: EMSA; 5 mM EDTA, poly(dI-dC); 2 uM RecG. The following applies: protein: recombinant; tags: N-terminal His6 cleaved off with thrombin (pET28b); label: 32P 5' end; bubble 1:2.

B1: Holliday junction (substrate H) (structured_DNA)
DNA 1: GACGCTGCCGAATTCTGGCTTGCTAGGACATCTTTGCCCACGTTGACCC
DNA 2: TGGGTCAACGTGGGCAAAGATGTCCTAGCAATGTAATCGTCTATGACGTT
DNA 3: CAACGTCATAGACGATTACATTGCTAGGACATGCTGTCTAGAGACTATCGA
DNA 4: ATCGATAGTCTCTAGACAGCATGTCCTAGCAAGCCAGAATTCGGCAGCGT
Regarding B1, the binding result in data set [1] is “binds”.

B2: lagging strand replication fork (substrate E) (structured_DNA)
DNA 1: GTCGGATCCTCTAGACAGCTCCATGATCACTGGCACTGGTAGAATTCGGC
DNA 2: CAACGTCATAGACGATTACATTGCTACATGGAGCTGTCTAGAGGATCCGA
DNA 3: TAGCAATGTAATCGTCTATGACGTT
Turning to B2, in data set [1] (fork 1:2 2:3), the binding result is recorded as “binds”.
Turning to TTTTTTTTTTTTTTTTTTTTTTTTTTTTTTTTTTTTTTTT (ssDNA) [poly(dT) 40 nt], the binding result in data set [2] is listed as “binds”.

B3: 3'-tailed duplex (oligos 1+2) (dsDNA)
DNA 1: CGTGACATGCCGTGACTAGCTTTTTTTTTTTTTTTTTTTT
DNA 2: GCTAGTCACGGCATGTCACG
As to B3, the binding result in data set [1] (3' overhang 20 nt (T20)) was “no binding”.

B4: 5'-tailed duplex (oligos 3+2) (dsDNA)
DNA 1: TTTTTTTTTTTTTTTTTTTTCGTGACATGCCGTGACTAGC
DNA 2: GCTAGTCACGGCATGTCACG
As to B4, the binding result in data set [1] (5' overhang 20 nt (T20)) was “no binding”.

B5: bubble (substrate I) (structured_DNA)
DNA 1: GGGTGAACCTGCAGGTGGGCGGCTGCTCATCGTAGGTTAGTTGGTAGAATTCGGCAGCGTC
DNA 2: GACGCTGCCGAATTCTACCAGTGCCTTGCTAGGACATCTTTGCCCACCTGCAGGTTCACCC
For the molecule B5, the binding result in data set [3] is recorded as “binds”.
